We go through 3 molecules from patent US20200247855A1, “THERAPY AND DIAGNOSTICS” (OXFORD UNIVERSITY INNOVATION LIMITED, priority 2017, published 2020).

Test [1] concerns the target T1, CCL15_HUMAN (Homo sapiens, UniProt Q16663).
T1 sequence (Q16663 22-113): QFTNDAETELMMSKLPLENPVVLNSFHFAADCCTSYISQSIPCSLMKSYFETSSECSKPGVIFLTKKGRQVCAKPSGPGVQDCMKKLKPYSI
Kind of test: Biolayer interferometry (BLI) binding. The method, boiled down: (§1)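 His-tagged purified tick CKBPs were loaded on Ni-NTA sensors and screened against chemokine at 300 nM. Chemokines that bound in this screen were retested at several concentrations. Association, equilibrium and dissociation curves were fitted to give Kd in molar units.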
(In BLI a coated tip is dipped into the sample, and binding shifts an interference pattern.)

In test [2] the target is CCL3L1_HUMAN (Homo sapiens, UniProt P16619). Kind of test: Biolayer interferometry (BLI) binding. The method, boiled down:
as §1

In test [3] the target is CCL7_HUMAN (Homo sapiens, UniProt P80098). Nature of the test: Biolayer interferometry (BLI) binding. The method in brief:
as §1

Test [4] deals with T2, CCL16_HUMAN (Homo sapiens, UniProt O15467).
T2 sequence (O15467 24-120): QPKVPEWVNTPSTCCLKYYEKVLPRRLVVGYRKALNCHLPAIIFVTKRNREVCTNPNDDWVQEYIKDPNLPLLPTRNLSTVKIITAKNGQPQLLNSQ
Nature of the test: Biolayer interferometry (BLI) binding. The method, boiled down: as §1

The target in test [5] is T3, CCL3_HUMAN (Homo sapiens, UniProt P10147).
T3 sequence (P10147 24-92): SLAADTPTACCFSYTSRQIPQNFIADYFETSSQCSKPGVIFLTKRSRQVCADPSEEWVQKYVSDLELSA
Kind of test: Biolayer interferometry (BLI) binding. The method, boiled down: as §1

The target of test [6] is T4, CCL8_HUMAN (Homo sapiens, UniProt P80075).
T4 sequence (P80075 24-99): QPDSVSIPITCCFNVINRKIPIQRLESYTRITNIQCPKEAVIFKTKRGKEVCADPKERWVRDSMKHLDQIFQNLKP
Kind of test: Biolayer interferometry (BLI) binding. The method in brief: as §1

For test [7], the target named is T5, CCL14_HUMAN (Homo sapiens, UniProt Q16627).
T5 sequence (Q16627 20-93): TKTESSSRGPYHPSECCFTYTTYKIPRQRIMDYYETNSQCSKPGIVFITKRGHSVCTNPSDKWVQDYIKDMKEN
Kind of test: Biolayer interferometry (BLI) binding. The method in brief: as §1

Test [8] deals with T6, CCL18_HUMAN (Homo sapiens, UniProt P55774).
T6 sequence (P55774 21-89): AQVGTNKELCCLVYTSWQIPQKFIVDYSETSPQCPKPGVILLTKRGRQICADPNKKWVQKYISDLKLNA
The conditions noted are these: read-out: Kd, CCL18_HUMAN, previously described evasins; data obtained from publications [20-22,32]; cited from earlier work.

The target in test [9] is T1, CCL15_HUMAN. To be noted: read-out: Kd, CCL15_HUMAN, previously described evasins; data obtained from publications [20-22,32]; cited from earlier work.
In test [10] the target is T7, CCL27_HUMAN (Homo sapiens, UniProt Q9Y4X3).
T7 sequence (Q9Y4X3 25-112): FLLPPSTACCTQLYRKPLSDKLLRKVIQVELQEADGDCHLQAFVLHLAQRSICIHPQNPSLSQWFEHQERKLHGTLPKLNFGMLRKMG
To be noted: data obtained from publications [20-22,32]; cited from earlier work.

Test [11] concerns the target CCL2_HUMAN (Homo sapiens, UniProt P13500). To be noted: data obtained from publications [20-22,32]; cited from earlier work.
Test [12] deals with CCL13_HUMAN (Homo sapiens, UniProt Q99616). To be noted: data obtained from publications [20-22,32]; cited from earlier work.

Read-outs that look alike come from different tables or passages of the source.

CCL7_HUMAN, sequence (P80098 24-99): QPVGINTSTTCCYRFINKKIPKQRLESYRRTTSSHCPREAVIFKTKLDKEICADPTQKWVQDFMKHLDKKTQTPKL
CCL3L1_HUMAN, sequence (P16619 24-93): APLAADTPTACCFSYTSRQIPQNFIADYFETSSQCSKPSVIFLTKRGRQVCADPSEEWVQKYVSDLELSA
CCL2_HUMAN, sequence (P13500 24-99): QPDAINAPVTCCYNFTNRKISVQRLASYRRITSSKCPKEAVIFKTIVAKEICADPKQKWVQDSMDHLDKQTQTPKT
CCL13_HUMAN, sequence (Q99616 17-98): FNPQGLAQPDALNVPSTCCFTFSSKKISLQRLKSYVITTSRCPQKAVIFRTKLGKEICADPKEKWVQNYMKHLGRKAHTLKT

B1: P1243_AMBAM: tick CKBP, Amblyomma americanum; AAM-02 stated identical (protein, listed as Amblyomma americanum)
chain: RNHTEDNSTEYYDYEEARCACPARHLNNTNGTVLKLLGCHYFCNGTLCTAPDGYPCYNLTAQQVRTLTTYPNTSCAVGVCMKGTCVKNGTMEQCFKTP
The Kd is a measure of binding affinity in units of concentration. Turning to B1, the Kd in [1] was 9.61 nM; in test [2], 5.05 nM; in test [3], 8.66 nM; in test [4], 0.926 nM; in [5], 5.3 nM; in [6] (read-out: Kd, CCL8_HUMAN), 21.9 nM. Besides, the Kd in test [7] amounted to 0.816 nM.

B2: P672_RHIPU: tick CKBP, Rhipicephalus pulchellus (protein, listed as Rhipicephalus pulchellus)
chain: VCEVSEQEGVGEDNATEDEDYEDFFKPVTCYFANSTVGPLRPPNCTVVCTNNTAWWNDTKSDGGHCYSEYRPEKRTHSREIYNCTIGVCGNGTCIANHTYADCW
For B2, the Kd in test [1] came out at 32 nM; in [2] it was 2.7 nM; in test [3] it was 16 nM; in test [4] it was 3.3 nM; in test [5], 2.6 nM; in [6] (read-out: Kd for CCL8) it was 3.7 nM. The Kd in test [7] came out at 5.5 nM.

B3: EVASIN4: previously described tick CKBP evasin 4, from Rhipicephalus sanguineus (protein, listed as Rhipicephalus sanguineus)
chain: EVPQMTSSSAPDLEEEDDYTAYAPLTCYFTNSTLGLLAPPNCSVLCNSTTTWFNETSPNNASCLLTVDFLTQDAILQENQPYNCSVGHCDNGTCAGPPRHAQCW
In the case of B3, the values for the Kd in test [8] and in [9] were 0.03 nM and 2.31 nM, respectively. Besides, the “Kd, CCL27_HUMAN, previously described evasins” value in test [10] is “No Binding”. Also, the “Kd, CCL2_HUMAN, previously described evasins” value in test [11] is “No Binding”. For the same molecule, in test [12], the “Kd, CCL13_HUMAN, previously described evasins” value is listed as “No Binding”.
